The text below walks through data of US20220363763A1 (ABL BIO, published 2022).

Sequences and labels used below:
B1: 147H-11 (antibody, V domains shown)
VH: EVQLVQSGAEVKKPGASVKVSCKASGYTFTNYWLGWVRQAPGQGLEWMGDIYPGGDYINYNEKFKGKATLTADTSISTAYMELSRLRSDDTAVYYCARPNLPGDYWGQGTTVTVSS
VL: DIVMTQSPLSLPVTPGEPASISCRSSKSLLHSNGITYLYWYLQKPGQSPQLLIYQVSNLASGVPDRFSGSGSGTDFTLKISRVEAEDVGVYYCAQNLELPWTFGGGTKVEIK
notes: Common light chain; human gamma 1 / kappa constant domains
B2: 147H-2 (antibody, V domains shown)
VH: QVQLVQSGAEVKKPGASVKVSCKASGYTFTNYWLGWVRQAPGQGLEWMGDIYPGGDYINYNEKFKGRVTMTADTSISTAYMELSRLRSDDTAVYYCARPNLPGDYWGQGTTVTVSS
VL: DIVMTQSPLSLPVTPGEPASISCRSSKSLLHSNGITYLYWYLQKPGQSPQLLIYQVSNLASGVPDRFSGSGSGTDFTLKISRVEAEDVGVYYCAQNLELPWTFGGGTKVEIK
notes: as for B1
B3: 147H-1 (antibody, V domains shown)
VH: QVQLVQSGAEVKKPGASVKVSCKASGYTFTNYWLGWVRQAPGQGLEWMGDIYPGGDYINYNEKFKGRVTMTRDTSISTAYMELSRLRSDDTAVYYCARPNLPGDYWGQGTTVTVSS
VL: DIVMTQSPLSLPVTPGEPASISCRSSKSLLHSNGITYLYWYLQKPGQSPQLLIYQVSNLASGVPDRFSGSGSGTDFTLKISRVEAEDVGVYYCAQNLELPWTFGGGTKVEIK
B4: 147H 3421 (antibody, V domains shown)
VH: EVQLVQSGAEVKKPGASVKVSCKASGYTFTNYWLGWIKQAPGQGLEWIGDIYPGGDYINYNEKFKGKATLTADTSISTAYMELSRLRSDDTAVYYCARPNLPKDHWGQGTTVTVSS
VL: DIVMTQSPLSLPVTPGEPASISCRSSKSLLHSNAITYLYWYLQKPGQSPQLLIYQVSNLASGVPDRFSGSGSGTDFTLKISRVEAEDVGVYYCAQNLELPWTFGGGTKVEIK
B5: 147H 3809 (antibody, V domains shown)
VH: EVQLVQSGAEVKKPGASVKVSCKASGYLFTNYWLGWIKQAPGQGLEWIGDIYPGGDYIVYNEKFKGKATLTADTSISTAYMELSRLRSDDTAVYYCARPNLPKDHWGQGTTVTVSS
VL: DIVMTQSPLSLPVTPGEPASISCRSSKSLLHSNAITYLYWYLQKPGQSPQLLIYQVSNLASGVPDRFSGSGSGTDFTLKISRVEAEDVGVYYCAQYLELPWTFGGGTKVEIK
B6: 147H 3550 (antibody, V domains shown)
VH: EVQLVQSGAEVKKPGASVKVSCKASGYTFTNYWLGWIKQAPGQGLEWIGDIYPGGDYINYNEKFKGKATLTADTSISTAYMELSRLRSDDTAVYYCARPNLPKDHWGQGTTVTVSS
VL: DIVMTQSPLSLPVTPGEPASISCRSSKSLLHSNAITYLYWYLQKPGQSPQLLIYQVSNLASGVPDRFSGSGSGTDFTLKISRVEAEDVGVYYCAQYLELPWTFGGGTKVEIK
B7: 147H 3791 (antibody, V domains shown)
VH: EVQLVQSGAEVKKPGASVKVSCKASGYTFTNYWLGWIKQAPGQGLEWIGDIYPGGDYIVYNEKFKGKATLTADTSISTAYMELSRLRSDDTAVYYCARPNLPGDYWGQGTTVTVSS
VL: DIVMTQSPLSLPVTPGEPASISCRSSKSLLHSNAITYLYWYLQKPGQSPQLLIYQVSNLASGVPDRFSGSGSGTDFTLKISRVEAEDVGVYYCGQNLELPWTFGGGTKVEIK
B8: 147H 3808 (antibody, V domains shown)
VH: EVQLVQSGAEVKKPGASVKVSCKASGYTFTNYWLGWIKQAPGQGLEWIGDIYPGGDYIVYNEKFKGKATLTADTSISTAYMELSRLRSDDTAVYYCARPNLPKDHWGQGTTVTVSS
VL: DIVMTQSPLSLPVTPGEPASISCRSSKSLLHSNAITYLYWYLQKPGQSPQLLIYQVSNLASGVPDRFSGSGSGTDFTLKISRVEAEDVGVYYCGQYLELPWTFGGGTKVEIK
B9: 147H 3669 (antibody, V domains shown)
VH: EVQLVQSGAEVKKPGASVKVSCKASGYLFTNYWLGWIKQAPGQGLEWIGDIYPGGDYIVYNEKFKGKATLTADTSISTAYMELSRLRSDDTAVYYCARPNLPGDYWGQGTTVTVSS
VL: DIVMTQSPLSLPVTPGEPASISCRSSKSLLHSNAITYLYWYLQKPGQSPQLLIYQVSNLASGVPDRFSGSGSGTDFTLKISRVEAEDVGVYYCAQNLELPWTFGGGTKVEIK
B10: 147H 3811 (antibody, V domains shown)
VH: EVQLVQSGAEVKKPGASVKVSCKASGYLFTNYWLGWIKQAPGQGLEWIGDIYPGGDYIVYNEKFKGKATLTADTSISTAYMELSRLRSDDTAVYYCARPNLPKDHWGQGTTVTVSS
VL: DIVMTQSPLSLPVTPGEPASISCRSSKSLLHSNAITYLYWYLQKPGQSPQLLIYQVSNLATGVPDRFSGSGSGTDFTLKISRVEAEDVGVYYCGQYLELPWTFGGGTKVEIK
B11: 147H 3508 (antibody, V domains shown)
VH: EVQLVQSGAEVKKPGASVKVSCKASGYTFTNYWLGWIKQAPGQGLEWIGDIYPGGDYINYNEKFKGKATLTADTSISTAYMELSRLRSDDTAVYYCARPNLPKDHWGQGTTVTVSS
VL: DIVMTQSPLSLPVTPGEPASISCRSSKSLLHSNAITYLYWYLQKPGQSPQLLIYQVSNLASGVPDRFSGSGSGTDFTLKISRVEAEDVGVYYCGQNLELPWTFGGGTKVEIK
B12: 147H 3663 (antibody, V domains shown)
VH: EVQLVQSGAEVKKPGASVKVSCKASGYTFENYWLGWIKQAPGQGLEWIGDIYPGGDYIVYNEKFKGKATLTADTSISTAYMELSRLRSDDTAVYYCARPNLPGDYWGQGTTVTVSS
VL: DIVMTQSPLSLPVTPGEPASISCRSSKSLLHSNAITYLYWYLQKPGQSPQLLIYQVSNLARGVPDRFSGSGSGTDFTLKISRVEAEDVGVYYCAQNLELPWTFGGGTKVEIK
B13: 147H 3792 (antibody, V domains shown)
VH: EVQLVQSGAEVKKPGASVKVSCKASGYTFTNYWLGWIKQAPGQGLEWIGDIYPGGDYIVYNEKFKGKATLTADTSISTAYMELSRLRSDDTAVYYCARPNLPGDYWGQGTTVTVSS
VL: DIVMTQSPLSLPVTPGEPASISCRSSKSLLHSNAITYLYWYLQKPGQSPQLLIYQVSNLASGVPDRFSGSGSGTDFTLKISRVEAEDVGVYYCAQYLELPWTFGGGTKVEIK
B14: 147H 3790 (antibody, V domains shown)
VH: EVQLVQSGAEVKKPGASVKVSCKASGYTFTNYWLGWIKQAPGQGLEWIGDIYPGGDYINYNEKFKGKATLTADTSISTAYMELSRLRSDDTAVYYCARPNLPKDHWGQGTTVTVSS
VL: DIVMTQSPLSLPVTPGEPASISCRSSKSLLHSNAITYLYWYLQKPGQSPQLLIYQVSNLATGVPDRFSGSGSGTDFTLKISRVEAEDVGVYYCAQNLELPWTFGGGTKVEIK
B15: 147H 3793 (antibody, V domains shown)
VH: EVQLVQSGAEVKKPGASVKVSCKASGYLFTNYWLGWIKQAPGQGLEWIGDIYPGGDYIVYNEKFKGKATLTADTSISTAYMELSRLRSDDTAVYYCARPNLPGDYWGQGTTVTVSS
VL: DIVMTQSPLSLPVTPGEPASISCRSSKSLLHSNAITYLYWYLQKPGQSPQLLIYQVSNLASGVPDRFSGSGSGTDFTLKISRVEAEDVGVYYCGQNLELPWTFGGGTKVEIK
B16: 147H 3794 (antibody, V domains shown)
VH: EVQLVQSGAEVKKPGASVKVSCKASGYLFTNYWLGWIKQAPGQGLEWIGDIYPGGDYIVYNEKFKGKATLTADTSISTAYMELSRLRSDDTAVYYCARPNLPGDYWGQGTTVTVSS
VL: DIVMTQSPLSLPVTPGEPASISCRSSKSLLHSNAITYLYWYLQKPGQSPQLLIYQVSNLASGVPDRFSGSGSGTDFTLKISRVEAEDVGVYYCAQYLELPWTFGGGTKVEIK
B17: 147H 3549 (antibody, V domains shown)
VH: EVQLVQSGAEVKKPGASVKVSCKASGYTFTNYWLGWIKQAPGQGLEWIGDIYPGGDYINYNEKFKGKATLTADTSISTAYMELSRLRSDDTAVYYCARPNLPKDHWGQGTTVTVSS
VL: DIVMTQSPLSLPVTPGEPASISCRSSKSLLHSNAITYLYWYLQKPGQSPQLLIYQVSNLASGVPDRFSGSGSGTDFTLKISRVEAEDVGVYYCAQYLEEPWTFGGGTKVEIK

The target of one assay is T1, human LAG3 (construct not stated) (human, UniProt P18627 23-450, limits assumed).
T1 construct: also called human LAG3 protein; antigen
T1 sequence (looked up): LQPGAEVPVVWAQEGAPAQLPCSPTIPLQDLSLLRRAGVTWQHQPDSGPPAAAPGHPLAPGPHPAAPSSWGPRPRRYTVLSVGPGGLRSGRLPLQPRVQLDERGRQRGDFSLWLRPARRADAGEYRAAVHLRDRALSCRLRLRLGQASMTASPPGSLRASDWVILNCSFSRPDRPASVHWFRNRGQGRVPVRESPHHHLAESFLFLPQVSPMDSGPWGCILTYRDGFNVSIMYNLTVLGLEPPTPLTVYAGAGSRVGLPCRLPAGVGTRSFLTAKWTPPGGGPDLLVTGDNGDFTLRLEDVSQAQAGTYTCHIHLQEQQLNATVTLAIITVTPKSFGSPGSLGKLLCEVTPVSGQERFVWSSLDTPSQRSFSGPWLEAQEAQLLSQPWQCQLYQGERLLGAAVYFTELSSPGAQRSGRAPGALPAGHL
The assay is described as follows: BLI Octet Red 96, affinity ranking.
B1: binding was characterised by a dissociation constant (Kd) of 42.2 nM, the koff was 0.00451 s⁻¹ and the kon stood at 107000 M⁻¹ s⁻¹.
The like results for B2 were, in that order, 31.6 nM, 0.00314 s⁻¹ and 99300 M⁻¹ s⁻¹.
The like results for B3 were, in that order, 35.4 nM, 0.00386 s⁻¹ and 109000 M⁻¹ s⁻¹.

The target in a further assay is T2, recombinant his-tag human LAG3-ECD protein (human, UniProt P18627 23-450).
T2 construct: extracellular domain; not shown: his tag
T2 sequence (looked up): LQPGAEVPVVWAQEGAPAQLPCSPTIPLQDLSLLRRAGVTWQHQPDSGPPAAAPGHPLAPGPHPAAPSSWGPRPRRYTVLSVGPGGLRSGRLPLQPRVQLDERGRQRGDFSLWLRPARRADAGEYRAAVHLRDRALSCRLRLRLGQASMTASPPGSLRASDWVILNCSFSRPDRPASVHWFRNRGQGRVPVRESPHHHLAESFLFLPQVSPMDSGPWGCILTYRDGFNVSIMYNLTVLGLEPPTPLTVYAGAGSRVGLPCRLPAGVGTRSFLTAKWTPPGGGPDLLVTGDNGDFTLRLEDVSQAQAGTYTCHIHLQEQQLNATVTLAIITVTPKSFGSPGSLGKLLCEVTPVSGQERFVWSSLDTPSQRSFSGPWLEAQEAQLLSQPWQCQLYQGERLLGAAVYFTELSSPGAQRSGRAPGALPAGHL
The assay is described as follows: SPR Biacore T200, capture method as Example 2.7.
On to B4, for which the Kd amounted to 8.1 nM, the off-rate constant (koff) is 0.012 s⁻¹ and the kon worked out at 1.4e+06 M⁻¹ s⁻¹.
The like results for B5 were, in that order, 0.47 nM, 0.002 s⁻¹ and 4.3e+06 M⁻¹ s⁻¹.
On to B6, for which the equilibrium dissociation constant (Kd) is 0.98 nM, the koff stood at 0.0085 s⁻¹ and the kon came out at 8.7e+06 M⁻¹ s⁻¹.
The like results for B7 were, in that order, 1.2 nM, 0.0025 s⁻¹ and 2.1e+06 M⁻¹ s⁻¹.
The like results for B8 were, in that order, 0.75 nM, 0.0032 s⁻¹ and 4.3e+06 M⁻¹ s⁻¹.
The like results for B9 were, in that order, 8.8 nM, 0.0063 s⁻¹ and 720000 M⁻¹ s⁻¹.
For the molecule B10, the equilibrium dissociation constant (Kd) worked out at 0.59 nM, the koff turned out to be 0.0029 s⁻¹ and the kon came to 4.9e+06 M⁻¹ s⁻¹.
Regarding B11, the Kd is 1.4 nM, the koff was 0.0042 s⁻¹ and the kon was determined as 2.9e+06 M⁻¹ s⁻¹.
The like results for B12 were, in that order, 6.8 nM, 0.0054 s⁻¹ and 790000 M⁻¹ s⁻¹.
The like results for B13 were, in that order, 0.59 nM, 0.0029 s⁻¹ and 4.9e+06 M⁻¹ s⁻¹.
The like results for B14 were, in that order, 5.9 nM, 0.0045 s⁻¹ and 770000 M⁻¹ s⁻¹.
Take B15: the Kd stood at 1.3 nM, the koff stood at 0.0023 s⁻¹ and the kon was determined as 1.8e+06 M⁻¹ s⁻¹.
As for B16, the Kd turned out to be 0.72 nM, the off-rate (koff) is 0.0027 s⁻¹ and the kon stood at 3.7e+06 M⁻¹ s⁻¹.
The like results for B17 were, in that order, 0.92 nM, 0.0068 s⁻¹ and 7.4e+06 M⁻¹ s⁻¹.
